Reference: patent US7595158B2, “Bcl2L12 polypeptide activators and inhibitors” (Dana-Farber Cancer Institute, Inc., priority 2003, dated 2009)

T1: caspase-9 (Homo sapiens, UniProt P55211)
T1 construct: endogenous in cells; host or cells: 293T
T1 sequence (P55211 1-416): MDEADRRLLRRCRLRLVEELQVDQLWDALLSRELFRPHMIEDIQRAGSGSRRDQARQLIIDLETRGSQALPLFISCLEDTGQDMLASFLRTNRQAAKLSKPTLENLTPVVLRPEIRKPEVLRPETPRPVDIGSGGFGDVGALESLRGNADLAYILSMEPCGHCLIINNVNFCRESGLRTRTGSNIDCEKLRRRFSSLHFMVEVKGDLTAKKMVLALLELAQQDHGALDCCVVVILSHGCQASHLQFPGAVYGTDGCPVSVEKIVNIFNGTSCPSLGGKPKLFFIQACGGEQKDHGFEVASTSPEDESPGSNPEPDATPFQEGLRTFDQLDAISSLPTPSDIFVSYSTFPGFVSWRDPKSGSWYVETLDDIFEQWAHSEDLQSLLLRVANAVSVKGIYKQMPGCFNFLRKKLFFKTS


Experiments:
[1] = test system: Ink4a-/-/Arf-/- astrocytes; assay: Growth of transduced Ink4a-/-/Arf-/- astrocytes under normal and low-serum conditions; type: cell-based, mouse; settings: over-expression, 10% FBS, vs vector only
From the text: The Bcl2L12-V5, R-RAS, and IRF3 nucleic acid sequences were cloned into expression vectors. Controls included expression vectors containing EGFR or Bcl2 nucleic acid sequences. The encoded polypeptides were expressed in primary astrocytes and tested for cell growth, transformation, and apoptosis activities. Primary astrocytes deficient for Ink4a/Arf (e.g., Ink4a^−/−/Arf^−/− astrocytes) were used given the prominence of this tumor suppressor lesion in advanced human gliomas. The following was performed to assess growth characteristics under normal growth conditions. Mouse Ink4a^−/−/Arf^−/− astrocytes were retro-virally transduced with pBabe vector alone; Bcl2L12-V5 nucleic acid; R-RAS nucleic acid; IRF3 nucleic acid; EGFR* nucleic acid; or Bcl2 nucleic acid. After retro-viral infection, transduced mouse Ink4a^−/−/Arf^−/− astrocytes were subjected to puromycin (2 μg/mL) selection for four days and plated at a density of 1×10^5 cells/10 cm dish using 10% FBS-DMEM medium. All transduced Ink4a^−/−/Arf^−/− astrocytes were counted each day for five days to determine cell numbers (mean±S.D.; three independent experiments with each being performed in triplicate).
The following was performed to assess growth characteristics under low-serum growth conditions. Retro-virally transduced mouse Ink4a^−/−/Arf^−/− astrocytes (1×10^6 cells/10 cm dish) were allowed to attach onto plates in 10% FBS-DMEM medium for five hours. After five hours, the medium was changed to 0.1% FBS-DMEM, and the cells were allowed to grow for three days. After three days in 0.1% FBS, the cells were counted to determine cell numbers (mean±S.D.; three independent experiments with each being performed in triplicate). The number of Ink4a^−/−/Arf^−/− astrocytes infected with pBabe-vector was set to 1.0.

[2] = test system: Ink4a-/-/Arf-/- astrocytes; assay: Annexin V staining of STS-treated Ink4a/Arf deficient astrocytes (FACS); type: cell-based, mouse; settings: 100 nM staurosporine one day; control cultures about 17-22 percent
Method: The following experiments were performed to determine whether the Bcl2L12 polypeptide influenced cell survival or apoptosis. Ink4a^−/−/Arf^−/− astrocytes retro-virally infected with vector alone (pBabe) or vector containing Bcl2 nucleic acid, Bcl2L12-V5 nucleic acid, R-RAS nucleic acid, or IRF3 nucleic acid were […] After this one day incubation, the cells were stained with annexin V (Roche). Annexin V-positive cells were determined by FACScan analysis (mean±S.D.; three independent experiments with each being performed in triplicate).
After STS treatment, the cells were analyzed for apoptosis by assessing annexin V binding and DNA fragmentation using a FACS based analysis.

[3] = test system: Ink4a/Arf deficient embryonic fibroblasts; assay: Colony formation of Ink4a/Arf deficient embryonic fibroblasts; type: cell-based; settings: about 300 cells per 6 well plate; vector only about 13
Method: In addition, Ink4a/Arf deficient embryonic fibroblasts were transfected with vector only or a vector encoding a Bcl2L12 polypeptide or Bcl2 polypeptide. Once the cells were transfected, the number of colonies formed in cultures (about 300 cells per 6 well plate) was determined. Expression of Bcl2L12 polypeptide promoted growth of Ink4a/Arf deficient embryonic fibroblasts. […] In a similar experiment, Ink4a/Arf deficient embryonic fibroblasts were co-transfected with a vector encoding H-RasV12 and either a vector only, vector encoding Bcl2L12 polypeptide, or a vector encoding Bcl2 polypeptide. Once the cells were transfected, the number of foci formed per transfection was determined. Expression of Bcl2L12 polypeptide or Bcl2 polypeptide in combination with H-RasV12 expression promoted growth of Ink4a/Arf deficient embryonic fibroblasts (about 1.5 to 2 fold more foci per transfection for cells expressing Bcl2L12 polypeptide or Bcl2 polypeptide compared to control pBabe cells).

[4] = test system: Ink4a-/-/Arf-/- mouse embryo fibroblasts; assay: Focus formation in cooperation with activated H-Ras in Ink4a-/-/Arf-/- mouse embryo fibroblasts; type: cell-based; settings: cotransfected with H-Ras G12V, vs pBabe
Method: The oncogenic potential of these genes was determined directly through their capacity to cooperate with activated H-RAS to effect the malignant transformation of primary Ink4a^−/−/Arf^−/− cells. Briefly, Ink4a^−/−/Arf^−/− mouse embryo fibroblasts (MEFs) were seeded at 8×10^5 cells/10 cm dish and grown in 10% FBS-DMEM for one day and then cotransfected with 1.5 μg of activated H-Ras^G12V and 1.5 μg of either pBabe, Bcl2, Bcl2L12-V5, R-RAS, or IRF3 nucleic acid using Lipopectamine-plus reagent (Invitrogen). One day after cotransfection, each Ink4a^−/−/ARF^−/− MEF was splitted 1:3 ratio and refed with 10% FBS-DMEM every 3-4 day for ten days. After staining cells with crystal violet solution, foci were counted to determine transformation efficiency (mean±S.D.; three independent experiments with each being done in duplicate). The numbers of foci from cells cotransfected with H-Ras^G12V and pBabe vector were set to 100%.
In addition, Ink4a/Arf deficient embryonic fibroblasts were transfected with vector only or a vector encoding a Bcl2L12 polypeptide or Bcl2 polypeptide. Once the cells were transfected, the number of colonies formed in cultures (about 300 cells per 6 well plate) was determined. Expression of Bcl2L12 polypeptide promoted growth of Ink4a/Arf deficient embryonic fibroblasts. […] Once the cells were transfected, the number of foci formed per transfection was determined. […]

caspase-9 = biological target: T1, caspase-9; assay: Caspase-9 in vitro cleavage and LEHDase activity assay with 293T cells; type: cell-based; settings: V5 tagged constructs; vector only about 420 RFUs
From the text: To determine if Bcl2L12 polypeptides could-regulate-the activity of caspase-9, a cell-free system was used in which exogenously added dATP and cytochrome c induced the activation of [^35S] labeled in vitro translated caspase-9. […] To confirm the inhibitory effect of Bcl2L12 polypeptides on caspase-9 maturation, 293T cells ectopically expressing Bcl2L12-V5 polypeptides where either subjected to an in vitro cleavage assay or to an activity assay using the caspase-9 specific fluorogenic peptide LEHD.
In addition, vectors encoding V5 tagged wild-type human Bcl2L12 polypeptide (WT; human amino acid sequence 1-334) and three V5 tagged truncation mutants of human Bcl2L12 (Bcl2L12-ΔBH2 polypeptide, human amino acid sequence 1-310; Bcl2L12-ΔBH2ΔP-r polypeptide, human amino acid sequence 1-267; and Bcl2L12-ΔBH2ΔP-rΔIHD polypeptide, human amino acid sequence 1-167) were made (FIG. 4A). These vectors expressed the appropriately sized polypeptides when translated in vitro or when expressed in 293T cells.

Row | Molecule | growth / proliferation under normal growth conditions [1] | annexin-V positive cells [2] | number of colonies [3] | RAS-induced focus formation increase [4] | caspase-9 activity (caspase-9)
1 | Bcl2: Bcl2 polypeptide expressed from control expression vector [reference compound] | failed to exhibit a pro-proliferative response | 2-3% | about 10 colonies |  | 
2 | IRF3: IRF3 polypeptide expressed from expression vector; candidate gene of the 19q13.3 amplicon (protein, UniProt Q14653 1-427, looked up) Interferon regulatory factor 3: MGTPKPRILPWLVSQLDLGQLEGVAWVNKSRTRFRIPWKHGLRQDAQQEDFGIFQAWAEATGAYVPGRDKPDLPTWKRNFRSALNRKEGLRLAEDRSKDPHDPHKIYEFVNSGVGDFSQPDTSPDTNGGGSTSDTQEDILDELLGNMVLAPLPDPGPPSLAVAPEPCPQPLRSPSLDNPTPFPNLGPSENPLKRLLVPGEEWEFEVTAFYRGRQVFQQTISCPEGLRLVGSEVGDRTLPGWPVTLPDPGMSLTDRGVMSYVRHVLSCLGGGLALWRAGQWLWAQRLGHCHTYWAVSEELLPNSGHGPDGEVPKDKEGGVFDLGPFIVDLITFTEGSGRSPRYALWFCVGESWPQDQPWTKRLVMVKVVPTCLRALVEMARVGGASSLENTVDLHISNSHPLSLTSDQYKAYLQDLVEGMDFQGPGES | failed to exhibit a pro-proliferative response | 14-16% |  | did not exhibit any cooperative activity | 
3 | Bcl2L12-ΔBH2ΔP-rΔIHD: V5 tagged truncation mutant of human Bcl2L12, human amino acid sequence 1-167 (protein, left off: small tags and cut ends) MGRPAGLFPPLCPFLGFRPEACWERHMQIERAPSVPPFLRWAGYRPGPVRRRGKVELIKFVRVQWRRPQVEWRRRRWGPGPGASMAGSEELGLREDTLRVLAAFLRRGEAAGSPVPTPPRSPAQEEPTDFLSRLRRCLPCSLGRGAAPSESPRPCSLPIRPCYGLEP |  |  |  |  | about 160 RFUs
4 | R-RAS: R-RAS polypeptide over-expressed from expression vector; candidate gene of the 19q13.3 amplicon (protein, UniProt P10301 1-215, looked up) Ras-related protein R-Ras: MSSGAASGTGRGRPRGGGPGPGDPPPSETHKLVVVGGGGVGKSALTIQFIQSYFVSDYDPTIEDSYTKICSVDGIPARLDILDTAGQEEFGAMREQYMRAGHGFLLVFAINDRQSFNEVGKLFTQILRVKDRDDFPVVLVGNKADLESQRQVPRSEASAFGASHHVAYFEASAKLRLNVDEAFEQLVRAVRKYQEQELPPSPPSAPRKKGGGCPC | moderate increase in proliferation | 10-20% |  | did not exhibit any cooperative activity | 
5 | Bcl2L12-ΔBH2ΔP-r: V5 tagged truncation mutant of human Bcl2L12, human amino acid sequence 1-267 (protein, left off: small tags and cut ends) MGRPAGLFPPLCPFLGFRPEACWERHMQIERAPSVPPFLRWAGYRPGPVRRRGKVELIKFVRVQWRRPQVEWRRRRWGPGPGASMAGSEELGLREDTLRVLAAFLRRGEAAGSPVPTPPRSPAQEEPTDFLSRLRRCLPCSLGRGAAPSESPRPCSLPIRPCYGLEPGPATPDFYALVAQRLEQLVQEQLKSPPSPELQGPPSTEKEAILRRLVALLEEEAEVINQKLASDPALRSKLVRLSSDSFARLVELFCSRDDSSRPSRACP |  |  |  |  | about 130 RFUs
